This is an account of results in US20200277377A1 (WUXI BIOLOGICS SHANGHAI, published 2020).

Numbering of substitutions follows the chain as printed.

The target of assay [1] is T1, hCTLA4_ECD.His (N113 Q) (human, UniProt P16410 36-161).
T1 construct: extracellular domain; Glycosylation-site mutein, expressed in HEK293F cells; also called CTLA-4 with N113Q
T1 sequence (looked up): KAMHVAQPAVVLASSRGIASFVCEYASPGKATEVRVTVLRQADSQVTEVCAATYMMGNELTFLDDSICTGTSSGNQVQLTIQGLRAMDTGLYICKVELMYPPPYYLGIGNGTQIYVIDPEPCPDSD
Nature of the assay: capture ELISA: W3162-1.154.8-z35 captured on anti-human Fc, hCTLA4-His mutein supernatant titrated (ng/ml), HRP-anti-His [C].

For assay [2], the target named is T2, hCTLA4_ECD.His point mutant K65 to alanine (human, UniProt P16410 36-161).
T2 construct: extracellular domain; alanine-scan mutein, HEK293F supernatant
T2 sequence (looked up): T1 sequence (looked up) with K30A, Q78N
The assay can be described thus: capture ELISA, alanine scan, vs silent alanine substitutions. In outline:
(§1)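 Secreted His-tagged CTLA4 point muteins in quantified supernatant were captured and probed with HRP anti-His antibody and TMB. Absorbance normalised to the mean of control mutants; epitope residues were assigned with a binding fold-change cutoff of <0.55.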
On the technique in general: An ELISA detects its analyte on a solid surface through an enzyme-linked reagent.

Assay [3] concerns the target T3, human CTLA-4.ECD-6×His (human, UniProt P16410 36-161).
T3 construct: extracellular domain; also called WBP316.hCTLA-4.ECD-6×His; hCTLA4-His (WT)
T3 sequence: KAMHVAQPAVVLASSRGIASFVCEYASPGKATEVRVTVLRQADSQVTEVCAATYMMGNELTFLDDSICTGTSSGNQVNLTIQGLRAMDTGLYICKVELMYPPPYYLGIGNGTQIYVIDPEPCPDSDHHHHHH
The assay can be described thus: capture ELISA: W3162-1.154.8-z35 captured on anti-human Fc, hCTLA4-His supernatant titrated (ng/ml), HRP-anti-His [C].

For assay [4], the target named is T4, hCTLA4_ECD.His point mutant T147 to alanine (human, UniProt P16410 36-161).
T4 construct: extracellular domain; alanine-scan mutein, HEK293F supernatant
T4 sequence (looked up): T1 sequence (looked up) with Q78N, T112A
Nature of the assay: capture ELISA, alanine scan, vs silent alanine substitutions. In outline: as §1

Assay [5] deals with T5, hCTLA4_ECD.His point mutant L126 to alanine (human, UniProt P16410 36-161).
T5 construct: extracellular domain; alanine-scan mutein, HEK293F supernatant
T5 sequence (looked up): T1 sequence (looked up) with Q78N, L91A
The assay is described as above. Summed up:
as §1

The target in assay [6] is T6, hCTLA4_ECD.His point mutant E132 to alanine (human, UniProt P16410 36-161).
T6 construct: extracellular domain; alanine-scan mutein, HEK293F supernatant
T6 sequence (looked up): T1 sequence (looked up) with Q78N, E97A
Described as above. In outline: as §1

Assay [7] deals with T7, hCTLA4_ECD.His point mutant T72 to alanine (human, UniProt P16410 36-161).
T7 construct: extracellular domain; alanine-scan mutein, HEK293F supernatant
T7 sequence (looked up): T1 sequence (looked up) with T37A, Q78N
The assay is described as above. Summed up: as §1

In assay [8] the target is T8, hCTLA4_ECD.His point mutant Q148 to alanine (human, UniProt P16410 36-161).
T8 construct: extracellular domain; alanine-scan mutein, HEK293F supernatant
T8 sequence (looked up): T1 sequence (looked up) with Q78N, Q113A
The description is as above. In outline:
as §1

In assay [9] the target is T9, hCTLA4_ECD.His point mutant G144 to alanine (human, UniProt P16410 36-161).
T9 construct: extracellular domain; alanine-scan mutein, HEK293F supernatant
T9 sequence (looked up): T1 sequence (looked up) with Q78N, G109A
The assay is described as above. In outline: as §1

For assay [10], the target named is T10, hCTLA4_ECD.His point mutant Y89 to alanine (human, UniProt P16410 36-161).
T10 construct: extracellular domain; alanine-scan mutein, HEK293F supernatant
T10 sequence (looked up): T1 sequence (looked up) with Y54A, Q78N
The assay is described as above. Summed up: as §1

Assay [11] addresses T11, hCTLA4_ECD.His point mutant I143 to alanine (human, UniProt P16410 36-161).
T11 construct: extracellular domain; alanine-scan mutein, HEK293F supernatant
T11 sequence (looked up): T1 sequence (looked up) with Q78N, I108A
The description is as above. Summed up: as §1

B1: W3162_1.154.8-z35-uAb.IgG1K (antibody, V domains shown)
VH: QVQLVQSGAEVKKPGSSVKVSCKASGYTFTNYFMNWVRQAPGQGLEWMGRVDPEQGRADYAEKFKKRVTITADKSTSTAYMELSSLRSEDTAVYYCARRAMDNYGFAYWGQGTLVTVSS
VL: EIVLTQSPDFQSVTPKEKVTITCSANSALSYMYWYQQKPDQSPKLWVHGTSNLASGVPSRFSGSGSGTDFTLTINSLEAEDAATYYCHHWSNTQWTFGGGTKVEIK
notes: Humanized; label says IgG1K
Take B1: the “EC50 (read off the curve)” value in [1] and in assay [3] was roughly 3 ng/mL each time. The molecule further showed a Fold change in assay [2] of 0.351 fold.

B2: W3162-1.146.19-z12-uAb.IgG1K (antibody, V domains shown)
VH: QVQLQESGPGLVKPSETLSLTCSVTYHTITSGYDWTWIRKPPGKGMEWIGYISYSGNTNYNPSLKSRVTISRDTSKNQFFLKLSSVTAADTAVYYCASMMVPHYYVMDAWGQGTLVTVSS
VL: DIVMTQTPLSLSVTPGQPASISCRSSQSLLNSDGNTYLYWYLQKPGQSPQLLIYLVSKLGSGVPNRFSGSGSGTDFTLKISRVEAEDVGVYYCVQGTHDPWTFGGGTKVEIK
notes: Humanized; label says IgG1K
B2: the Fold change in assay [4] amounted to 0.486 fold; in assay [5], 0.398 fold; in assay [6] it was 0.457 fold; in assay [7], 0.541 fold; in [8], 0.5 fold; in assay [9], 0.478 fold. The Fold change in assay [10] was 0.512 fold; in assay [11], 0.264 fold.
